Broadly, the Kd is the equilibrium constant for the complex coming apart.

Kd and binding data for three substances are collected here from publication PMC12210985.

For series [1], the system named is ArcA-P (Shewanella oneidensis MR-1). Nature of the series: MST. The settings on record: phosphorylated ArcA; EMSA: 2 mM EDTA, 20 mM KCl, 0.5 mM DTT, 4% Ficoll-400, pH 8.0, 2 ug poly(dI-dC), 10 nM probe, 10 uM cAMP for Crp; MST: 1x PBS pH 7.4, 0.05% Tween-20, 25 C.
Series [2] deals with MBP-Crp-His6 (Shewanella oneidensis MR-1). Nature of the series: MST. The settings on record: EMSA: 2 mM EDTA, 20 mM KCl, 0.5 mM DTT, 4% Ficoll-400, pH 8.0, 2 ug poly(dI-dC), 10 nM probe, 10 uM cAMP for Crp; MST: 1x PBS pH 7.4, 0.05% Tween-20, 25 C. (In general: Mobility shift assays separate free from complexed probe on a gel.)
For series [3], the target named is T1, MBP-Crp (Shewanella oneidensis MR-1) (UniProt Q8EJ49).
T1 sequence: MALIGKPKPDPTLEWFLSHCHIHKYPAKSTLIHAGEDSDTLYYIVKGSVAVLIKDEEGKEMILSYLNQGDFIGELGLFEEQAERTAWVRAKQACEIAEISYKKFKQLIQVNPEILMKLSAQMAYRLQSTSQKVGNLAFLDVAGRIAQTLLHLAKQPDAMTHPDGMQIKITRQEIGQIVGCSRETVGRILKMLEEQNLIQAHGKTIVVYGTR
Nature of the series: EMSA. The settings on record: EMSA: 2 mM EDTA, 20 mM KCl, 0.5 mM DTT, 4% Ficoll-400, pH 8.0, 2 ug poly(dI-dC), 10 nM probe, 10 uM cAMP for Crp; MST: 1x PBS pH 7.4, 0.05% Tween-20, 25 C.

Series [4] addresses T2, ArcA-P (Shewanella oneidensis MR-1) (UniProt Q8EAB9).
T2 sequence: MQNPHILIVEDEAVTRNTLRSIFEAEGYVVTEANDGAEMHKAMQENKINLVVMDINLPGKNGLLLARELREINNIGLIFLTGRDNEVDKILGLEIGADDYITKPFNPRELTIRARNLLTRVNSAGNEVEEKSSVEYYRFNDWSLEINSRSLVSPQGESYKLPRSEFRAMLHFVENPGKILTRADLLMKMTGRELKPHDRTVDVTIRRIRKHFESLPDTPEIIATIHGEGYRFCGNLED
As to the kind of experiment: EMSA. The settings on record: EMSA: 2 mM EDTA, 20 mM KCl, 0.5 mM DTT, 4% Ficoll-400, pH 8.0, 2 ug poly(dI-dC), 10 nM probe, 10 uM cAMP for Crp; MST: 1x PBS pH 7.4, 0.05% Tween-20, 25 C.

Series [5] deals with T3, MBP-Crp-His6 (Shewanella oneidensis MR-1) (UniProt Q8EJ49).
T3 sequence: T1 sequence
As to the kind of experiment: MST. The settings on record: EMSA: 2 mM EDTA, 20 mM KCl, 0.5 mM DTT, 4% Ficoll-400, pH 8.0, 2 ug poly(dI-dC), 10 nM probe, 10 uM cAMP for Crp; MST: 1x PBS pH 7.4, 0.05% Tween-20, 25 C.

For series [6], the target named is T2, ArcA-P (Shewanella oneidensis MR-1). As to the kind of experiment: MST. The settings on record: EMSA: 2 mM EDTA, 20 mM KCl, 0.5 mM DTT, 4% Ficoll-400, pH 8.0, 2 ug poly(dI-dC), 10 nM probe, 10 uM cAMP for Crp; MST: 1x PBS pH 7.4, 0.05% Tween-20, 25 C.

Turning to nqr2 promoter probe (PnqrA2), the figures for the Kd in series [1] and in series [2] were 680 nM and 2020 nM, respectively.
In the same order, the values of nqr1 promoter probe (PnqrA1) are 560 nM and 120 nM.
As to “AATAACAACCTCAACAAACTCATGTAAATGGCTAAGTTATACCACGGAACAGATAAGAGATAACTACTTTAGTCTAACTAAACAGGCAATTTAGCATTAAAGATATTTCAGAAACAATAAACCACACGATAAAATTTGAGCAGCAAAAAGGGGTAGTGTTCATAATTCTGTGTCATTTCAGTAAAATATTCAAAAACAGGAATGACAC (double strand) [ndh promoter probe (Pndh)]”, the binding entry in series [3], in series [4], in series [5] and in series [6] was “binds” each time.
